For orientation: Kd means the free concentration of one partner at which half of the binding sites on the other are occupied at equilibrium, for simple one-to-one binding. The low end stands for tighter binding, the high end for weaker binding.

We go through two molecules from US20070287629A1 (MAX PLANCK GESELLSCHAFT ZUR FOERDERUNG DER WISSENSCHAFTEN E …, published 2007).

Data set [1] deals with 14-3-3-FC complex (tobacco 14-3-3c saturated with fusicoccin) (Nicotiana tabacum (tobacco)) (UniProt P93343).
Data set [2] concerns the target Tobacco 14-3-3c (Gene bank AAC49892, amino acids 1-260 with an N-terminal His-tag) (Nicotiana tabacum (tobacco)) (UniProt P93343). Description: ITC; peptide into unliganded 14-3-3c. A general note: In ITC the heat of successive injections is recorded.
Data set [3] has as its target 14-3-3-FC complex (tobacco 14-3-3c saturated with fusicoccin) (Nicotiana tabacum (tobacco)) (UniProt P93343). The experiment in a line: ITC; peptide into the 14-3-3-FC complex.
Data set [4] shares this target. Description: isothermal titration calorimetry, […].
The target of data set [5] is Tobacco 14-3-3c (Gene bank AAC49892, amino acids 1-260 with an N-terminal His-tag) (Nicotiana tabacum (tobacco)) (UniProt P93343). The experiment in a line: isothermal titration calorimetry, peptide titrated into 14-3-3c alone, 35 °C.
For data set [6] the target is unchanged. The experiment in a line: ITC; phosphopeptide (0.5 mM) titrated into 14-3-3c (0.05 mM), 25 mM HEPES pH 6.5, 35 °C, single-site fit; peptide to unliganded 14-3-3c, no fusicoccin; ITC, pH 6.5, 35 C.
Data set [7] deals with the molecule itself. Description: X-ray crystal structure (homodimer).
Description: Tobacco 14-3-3c (Gene bank AAC49892, amino acids 1-260 with an N-terminal His-tag) was expressed recombinantly in E.coli and purified via standard procedures. Fusicoccin was purchased from Sigma. Phosphopeptides were synthesized by Biosyntan (Berlin). […] They were soaked with ligands for 4 hours (fusicoccin) or 20 minutes (peptide) in precipitant solution supplemented to 30% PEG 400 and cryoprotectant (precipitant solution supplemented to 35% PEG 400, 8% Isopropanol) prior to freezing in liquid N₂.

Regarding “phosphopeptide Gln-Ser-Tyr-pThr-Val (QSYpTV), C-terminal end of PMA2, a H+-ATPase isoform from N. plumbaginifolia”, the fold increase of binding affinity by fusicoccin in data set [1] was found to be 93 fold. For the same molecule, the -TΔS in data set [2] amounted to 1.7 kcal/mol; in data set [3], 0.4 kcal/mol. In addition, the ΔH in data set [2] is -10 kcal/mol; in data set [3] it was -11.8 kcal/mol. Moreover, the Kd in data set [4] turned out to be 27 nM; in data set [6], 2500 nM. Moreover, the ΔG is -11.4 kcal/mol in data set [4] and -8.3 kcal/mol in data set [5].

B1: Tobacco 14-3-3c (Gene bank AAC49892, amino acids 1-260 with an N-terminal His-tag) (other)
chain: MAVAPTAREENVYMAKLAEQAERYEEMVEFMEKVSNSLGSEELTVEERNLLSVAYKNVIGARRASWRIISSIEQKEESRGNEEHVNSIREYRSKIENELSKICDGILKLLDAKLIPSAASGDSKVFYLKMKGDYHRYLAEFKTGAERKEAAESTLTAYKAAQDIATTELAPTHPIRLGLALNFSVFYYEILNSPDRACNLAKQAFDEAIAELDTLGEESYKDSTLIMQLLRDNLTLWTSDMQDDGADEIKEDPKPDEAKN
notes: Expressed in E. coli; one monomer in the asymmetric unit; also called plant 14-3-3c; Nicotiana tabacum 14-3-3 isoform c; not shown: N-terminal His-tag
As to B1, the binding result in data set [7] is listed as “binds”.
